Source: the supplement of paper PMC9112550, “Optimization of the antimicrobial peptide Bac7 by deep mutational scanning” (BMC Biology, 2022)

Test system: Escherichia coli TOP10
Assay: shrunken log2 fold change of peptide-encoding DNA abundance (4.5 h post-induction vs induction); higher = less antimicrobial activity (less host growth inhibition)
Details: time post-induction: 4.5 h; library: site-saturation at positions 5, 18, 19, 20
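Note: peptides expressed intracellularly from a pBAD plasmid library in pooled LB shake-flask culture, induced with 0.3% L-arabinose, DNA abundance read by NGS, three biological replicates, DESeq2 with apeglm shrinkage.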

Row | Sequence | shrunken log2 fold change
1 | RRIRARPPRLPRPRPRPHTMPRP | -0.0952
2 | RRIRVRPPRLPRPRPRPLGDPRP | -0.125
3 | RRIRKRPPRLPRPRPRPKSNPRP | 0.112
4 | RRIRVRPPRLPRPRPRPWDVPRP | -0.0177
5 | RRIRWRPPRLPRPRPRPVLDPRP | 0.0956
6 | RRIRIRPPRLPRPRPRPYAKPRP | -0.207
7 | RRIRSRPPRLPRPRPRPMTSPRP | -0.0553
8 | RRIRVRPPRLPRPRPRPRQYPRP | 0.00898
9 | RRIRCRPPRLPRPRPRPHSIPRP | -0.101
10 | RRIRKRPPRLPRPRPRPAEKPRP | 0.477
11 | RRIRHRPPRLPRPRPRPCQAPRP | -0.119
12 | RRIRFRPPRLPRPRPRPWVEPRP | -0.0273
13 | RRIRNRPPRLPRPRPRPHCGPRP | -0.225
14 | RRIRWRPPRLPRPRPRPMSRPRP | 0.063
15 | RRIRQRPPRLPRPRPRPREHPRP | -0.117
16 | RRIRKRPPRLPRPRPRPFALPRP | 0.186
17 | RRIRPRPPRLPRPRPRPWLCPRP | 0.106
18 | RRIRCRPPRLPRPRPRPFHIPRP | -1.96
19 | RRIRCRPPRLPRPRPRPWGLPRP | -0.268
20 | RRIRSRPPRLPRPRPRPTWQPRP | 0.0157

Row | Sequence | shrunken log2 fold change
21 | RRIRMRPPRLPRPRPRPMNIPRP | -0.198
22 | RRIRNRPPRLPRPRPRPISHPRP | -0.963
23 | RRIRPRPPRLPRPRPRPTLQPRP | 0.353
24 | RRIRFRPPRLPRPRPRPCPIPRP | -0.488
25 | RRIRDRPPRLPRPRPRPHPIPRP | -0.152
26 | RRIRCRPPRLPRPRPRPRRAPRP | 0.64
27 | RRIRFRPPRLPRPRPRPAVGPRP | 0.591
28 | RRIRCRPPRLPRPRPRPMNPPRP | -0.24
29 | RRIRQRPPRLPRPRPRPMMEPRP | 0.00908
30 | RRIRDRPPRLPRPRPRPVHAPRP | 0.209
31 | RRIRNRPPRLPRPRPRPFIFPRP | -0.373
32 | RRIRARPPRLPRPRPRPAQQPRP | 0.156
33 | RRIRYRPPRLPRPRPRPSIIPRP | -0.236
34 | RRIRDRPPRLPRPRPRPTTHPRP | 0.313
35 | RRIRMRPPRLPRPRPRPCPNPRP | 0.0197
36 | RRIRMRPPRLPRPRPRPVHMPRP | -0.318
37 | RRIRIRPPRLPRPRPRPMSKPRP | -0.332
38 | RRIRGRPPRLPRPRPRPRKCPRP | 0.666
39 | RRIRARPPRLPRPRPRPNKQPRP | 0.165
40 | RRIRCRPPRLPRPRPRPAHIPRP | -0.0847

Row | Sequence | shrunken log2 fold change
41 | RRIRTRPPRLPRPRPRPEPTPRP | 0.347
42 | RRIRFRPPRLPRPRPRPATAPRP | 0.106
43 | RRIRDRPPRLPRPRPRPPQIPRP | -0.179
44 | RRIRQRPPRLPRPRPRPCFPPRP | 0.121
45 | RRIRPRPPRLPRPRPRPQHPPRP | 0.0328
46 | RRIRIRPPRLPRPRPRPVWVPRP | 0.107
47 | RRIRGRPPRLPRPRPRPLFVPRP | 0.203
48 | RRIRVRPPRLPRPRPRPFTGPRP | -0.115
49 | RRIRVRPPRLPRPRPRPCGKPRP | -0.15
50 | RRIRYRPPRLPRPRPRPFNIPRP | -0.973
51 | RRIRKRPPRLPRPRPRPFTPPRP | 0.0993
52 | RRIRGRPPRLPRPRPRPCKYPRP | -0.533
53 | RRIRGRPPRLPRPRPRPYHTPRP | -0.779
54 | RRIRIRPPRLPRPRPRPMFMPRP | -0.383
55 | RRIRRRPPRLPRPRPRPNFMPRP | 0.142
56 | RRIRMRPPRLPRPRPRPEVKPRP | 2.97
57 | RRIRERPPRLPRPRPRPIMSPRP | -0.38
58 | RRIRRRPPRLPRPRPRPNDIPRP | -0.349
59 | RRIRSRPPRLPRPRPRPVDGPRP | 0.826
60 | RRIRWRPPRLPRPRPRPPFTPRP | 0.21
